This is an account of results in article PMC13223232, “Structural basis for TRF2-RAP1 recruitment by EBNA1 at the EBV origin of replication” (Scientific Reports, 2025).

B1: EBNA1 DNA binding domain (DBD) aa 401–607 (domain or fragment)
chain: GRRPFFHPVGEADYFEYHQEGGPDGEPDVPPGAIEQGPADDPGEGPSTGPRGQGDGGRRKKGGWFGKHRGQGGSNPKFENIAEGLRALLARSHVERTTDEGTWVAGVFVYGGSKTSLYNLRRGTALAIPQCRLTPLSRLPFGMAPGPGPQPGPLRESIVCYFMVFLQTHIFAEVLKDAIKDLVMTKPAPTCNIRVTVCSFDDGVDLP
notes: also called EBNA1 DBD; EBNA1 401–607; source: E. coli, purified (Ni-NTA, SEC); not shown: His6-SUMO, N-terminal, cleaved
B2: full length TRF2/Rap1 complex (complex)
chain 1: MAAGAGTAGPASGPGVVRDPAASQPRKRPGREGGEGARRSDTMAGGGGSSDGSGRAAGRRASRSSGRARRGRHEPGLGGPAERGAGEARLEEAVNRWVLKFYFHEALRAFRGSRYGDFRQIRDIMQALLVRPLGKEHTVSRLLRVMQCLSRIEEGENLDCSFDMEAELTPLESAINVLEMIKTEFTLTEAVVESSRKLVKEAAVIICIKNKEFEKASKILKKHMSKDPTTQKLRNDLLNIIREKNLAHPVIQNFSYETFQQKMLRFLESHLDDAEPYLLTMAKKALKSESAASSTGKEDKQPAPGPVEKPPREPARQLRNPPTTIGMMTLKAAFKTLSGAQDSEAAFAKLDQKDLVLPTQALPASPALKNKRPRKDENESSAPADGEGGSELQPKNKRMTISRLVLEEDSQSTEPSAGLNSSQEAASAPPSKPTVLNQPLPGEKNPKVPKGKWNSSNGVEEKETWVEEDELFQVQAAPDEDSTTNITKKQKWTVEESEWVKAGVQKYGEGNWAAISKNYPFVNRTAVMIKDRWRTMKRLGMN
chain 2: MAEAMDLGKDPNGPTHSSTLFVRDDGSSMSFYVRPSPAKRRLSTLILHGGGTVCRVQEPGAVLLAQPGEALAEASGDFISTQYILDCVERNERLELEAYRLGPASAADTGSEAKPGALAEGAAEPEPQRHAGRIAFTDADDVAILTYVKENARSPSSVTGNALWKAMEKSSLTQHSWQSLKDRYLKHLRGQEHKYLLGDAPVSPSSQKLKRKAEEDPEAADSGEPQNKRTPDLPEEEYVKEEIQENEEAVKKMLVEATREFEEVVVDESPPDFEIHITMCDDDPPTPEEDSETQPDEEEEEEEEKVSQPEVGAAIKIIRQLMEKFNLDLSTVTQAFLKNSGELEATSAFLASGQRADGYPIWSRQDDIDLQKDDEDTREALVKKFGAQNVARRIEFRKK
notes: also called pre-assembled TRF2-Rap1 complex; source: E. coli, each purified (Ni-NTA, SEC); pre-assembled complex purified by glycerol gradient; not shown: His6-SUMO, N-terminal, cleaved
B3: GST-TRFH domain (amino acids 85–287) (domain or fragment, human, UniProt Q15554 85-287, looked up)
chain: AGEARLEEAVNRWVLKFYFHEALRAFRGSRYGDFRQIRDIMQALLVRPLGKEHTVSRLLRVMQCLSRIEEGENLDCSFDMEAELTPLESAINVLEMIKTEFTLTEAVVESSRKLVKEAAVIICIKNKEFEKASKILKKHMSKDPTTQKLRNDLLNIIREKNLAHPVIQNFSYETFQQKMLRFLESHLDDAEPYLLTMAKKALK
notes: also called TRF2 homodimerization domain; TRF2 dimerization domain; source: E. coli, purified to near homogeneity; not shown: GST, N-terminal, kept

Data set [1] concerns the molecule itself. Nature of the data set: cryo-EM structure; ½ DS + EBNA1 DBD + TRF2 + Rap1 (1 : 4 : 2.5 : 2.5), GraFix (10-30% glycerol, 0.125% glutaraldehyde); estimated 7.1 Å reconstruction.
The target of data set [2] is B2. Put plainly: native gel or EMSA; IRD700-labelled 60 bp ½ DS DNA probe (5 nM); Rap1, TRF2 or TRF2 + Rap1 titrated up to 480 nM without EBNA1, with EBNA1 401–607 or with EBNA1 Δ90–325; 10 mM HEPES pH 7.5, 300 mM KCl, 5 mM MgCl2, 1 mM ZnCl2, 5 mM BME, 0.05% NP-40, 5% glycerol; 1.4% agarose gel; all proteins meet on the DNA. The note with it: both partners purified. For orientation: In EMSA bound probe runs differently from free probe, usually more slowly.

Another data set addresses T1, full-length TRF2 (human, UniProt Q15554 1-542).
T1 construct: also called TERF2; source: E. coli, purified (Ni-NTA, SEC); not shown: His6-SUMO, N-terminal, cleaved
T1 sequence (looked up): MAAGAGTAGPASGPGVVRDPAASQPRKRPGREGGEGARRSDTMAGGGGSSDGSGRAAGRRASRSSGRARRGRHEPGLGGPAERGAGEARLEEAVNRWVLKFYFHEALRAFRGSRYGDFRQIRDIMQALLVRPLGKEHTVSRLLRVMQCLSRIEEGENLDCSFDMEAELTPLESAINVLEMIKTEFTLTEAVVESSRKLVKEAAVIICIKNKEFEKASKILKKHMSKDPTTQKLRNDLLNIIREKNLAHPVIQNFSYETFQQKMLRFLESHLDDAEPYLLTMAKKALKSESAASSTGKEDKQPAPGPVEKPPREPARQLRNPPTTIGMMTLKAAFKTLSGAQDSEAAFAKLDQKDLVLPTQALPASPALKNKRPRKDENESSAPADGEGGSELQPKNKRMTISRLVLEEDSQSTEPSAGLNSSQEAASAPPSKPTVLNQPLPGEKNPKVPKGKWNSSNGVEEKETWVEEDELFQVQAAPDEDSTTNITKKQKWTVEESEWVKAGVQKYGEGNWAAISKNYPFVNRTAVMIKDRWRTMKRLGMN
Put plainly: cross-linking; zero-length EDC/Sulfo-NHS cross-linking with LC-MS/MS; complex mixed 1 ½ DS DNA : 4 EBNA1 401–607 : 2.5 TRF2 : 2.5 Rap1, glycerol-gradient purified, 1 mg/mL in 20 mM MES pH 6.8, 100 mM NaCl, 1 mM MgCl2, 10 µM ZnCl2, 0.5 mM TCEP; 10 mM crosslinker, room temperature, 2 h. The note with it: both partners purified.

The target of another data set is T2, full-length Rap1 (human, UniProt Q9NYB0 1-399).
T2 construct: also called TERF2IP; source: E. coli, purified (Ni-NTA, SEC); not shown: His6-SUMO, N-terminal, cleaved
T2 sequence (looked up): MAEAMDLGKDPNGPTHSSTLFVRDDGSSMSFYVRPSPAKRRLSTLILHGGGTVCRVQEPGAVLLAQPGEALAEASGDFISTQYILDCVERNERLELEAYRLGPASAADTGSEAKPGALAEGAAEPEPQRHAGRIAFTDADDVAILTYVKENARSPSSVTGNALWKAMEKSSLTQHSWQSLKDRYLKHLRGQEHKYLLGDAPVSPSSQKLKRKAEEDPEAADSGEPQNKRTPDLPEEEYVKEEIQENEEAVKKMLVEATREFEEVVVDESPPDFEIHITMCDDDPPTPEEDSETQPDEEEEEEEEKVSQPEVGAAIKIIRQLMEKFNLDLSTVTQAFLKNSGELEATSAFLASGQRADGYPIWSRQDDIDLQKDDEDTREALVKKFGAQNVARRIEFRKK
The description is as above. The note with it: both partners purified.

Data set [3] addresses T3, EBNA1 Δ90–325 3x (E495A D499A E500A) (Epstein-Barr virus, UniProt P03211 1-641, Δ90–325 | E495A | D499A | E500A).
T3 construct: also called 3x mutant EBNA1; source: E. coli, purified (Ni-NTA, SEC); not shown: His6-SUMO, N-terminal, cleaved
T3 sequence: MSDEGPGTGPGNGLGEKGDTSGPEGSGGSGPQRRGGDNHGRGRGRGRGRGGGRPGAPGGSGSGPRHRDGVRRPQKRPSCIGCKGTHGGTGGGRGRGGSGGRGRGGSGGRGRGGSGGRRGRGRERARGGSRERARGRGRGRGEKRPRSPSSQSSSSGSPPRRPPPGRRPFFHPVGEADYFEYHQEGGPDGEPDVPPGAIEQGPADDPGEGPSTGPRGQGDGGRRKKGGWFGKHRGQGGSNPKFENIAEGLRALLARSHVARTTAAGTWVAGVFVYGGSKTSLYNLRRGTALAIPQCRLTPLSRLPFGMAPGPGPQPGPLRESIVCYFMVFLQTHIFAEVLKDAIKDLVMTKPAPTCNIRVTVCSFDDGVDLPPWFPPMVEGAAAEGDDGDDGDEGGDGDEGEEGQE
Nature of the data set: native gel or EMSA; pre-assembled TRF2-Rap1 complex (glycerol-gradient purified) serially diluted and added to pre-assembled ½ DS-EBNA1 complex (20 nM EBNA1 Δ90–325 WT, 3x or 8x, 5 nM ½ DS DNA); binding buffer with 300 mM KCl, pH 7.5. The note with it: both partners purified.

Data set [4] deals with B1. Nature of the data set: native gel or EMSA; supershift of the ½ DS-EBNA1 complex by TRFH (no Myb domain); binding buffer lowered to 100 mM KCl, highest TRFH 10 µM (1000-fold stoichiometric excess); only a weak supershift under standard conditions (300 mM KCl). The note with it: both partners purified.
For data set [5], the target named is B3. Described as above. The note with it: both partners purified.

In the case of B1, the binding result (in data set [1]; in data set [2]; with full-length TRF2; with full-length Rap1) was “binds” throughout.

With B2, the “fold weaker binding than with WT EBNA1” value in data set [3] was approximately 2 fold. As to B3, the binding result in data set [4] is “binds”.

B4: EBNA1 459–607 (domain or fragment)
chain: RKKGGWFGKHRGQGGSNPKFENIAEGLRALLARSHVERTTDEGTWVAGVFVYGGSKTSLYNLRRGTALAIPQCRLTPLSRLPFGMAPGPGPQPGPLRESIVCYFMVFLQTHIFAEVLKDAIKDLVMTKPAPTCNIRVTVCSFDDGVDLP
notes: also called shorter EBNA1 459–607; core structured DBD; source: E. coli
Take B4: in data set [5], the binding result is “binds”.
